This series addresses T1, GST-FKH-FoxA2 (Rattus norvegicus (rat; cloned from genomic DNA)) (UniProt P32182).
T1 sequence (P32182 145-290, looked up): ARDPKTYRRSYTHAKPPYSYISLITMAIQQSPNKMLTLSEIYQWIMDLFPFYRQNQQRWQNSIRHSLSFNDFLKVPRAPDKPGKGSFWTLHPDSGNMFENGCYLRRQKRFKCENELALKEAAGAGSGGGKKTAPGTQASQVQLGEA
The series is described as follows: competition EMSA. To be noted: 25 mM HEPES pH 7.6, 150 mM KCl, 0.2 mM EDTA, 0.2 mM EGTA, 10% glycerol, 1 mM DTT, 3 ug protein, 1 ng 32P-TTR probe, 2/5/20 ng competitor, on ice 15 min, 4% …. In general terms: In EMSA bound probe runs differently from free probe, usually more slowly.

The values that follow come from article PMC4234207.

Sequence “CAGTTGCGCCCCGGGTGTTGGCAGCGAGAAGTGG (double strand) [non-site chr12:77880754 b]” displayed a binding signal (EMSA score (TTR=1)) of 0.03.
Consider “CAGTCTTGAGGCCTGTTTACCGTCCAGTTA (double strand) [FoxA BS chr19:44039737]”, for which the binding signal (EMSA score (TTR=1)) turned out to be 0.43.
As to “CAGTCAGTGGAAGGCTGTTAACTGTGCCTGCTGC (double strand) [non-site chr13:40870570]”, the binding signal (EMSA score (TTR=1)) is -0.02.
On the same count and under the same terms, the value for “CAGTTCATGCCACAGTTTACTCTGGTCCCT (double strand) [non-site chr1:154160175]” was 0.24; that for “CAGTATGTGTTGTTGTTGACTTTAAGGTCG (double strand) [FoxA BS chr9:107420590]” was 0.93; that for “CAGTCTCTGAGTGACTGTTTTCTGTAATACCCAA (double strand) [non-site chr15:91019750]” was 0.01.
On the same count and under the same terms, the value for “CAGTAGGTTTCTCTATTGACTCTATTGCCT (double strand) [FoxA BS chr11:45798706]” was 0.49; that for “CAGTCCCGGGCCTGTTTGCTTTTCCATACA (double strand) [FoxA BS chr12:8003233]” was 0.5.
For “CAGTACCCCAGGATTTGTGGGCTGTGGGTGTGGC (double strand) [non-site chr7:44970992]”, the binding signal (EMSA score (TTR=1)) was -0.11.
In turn, “CAGTCAGCTCCCATGTTTACCAGGCCTTGA (double strand) [FoxA BS chr6:121311851]” registered a binding signal (EMSA score (TTR=1)) of 0.57.
On the same count and under the same terms, with “CAGTAAGCCTCGCGTTGTTTGGTTAAGGGGCAGG (double strand) [FoxA BS chr1:7078701]” the figure was 0.83; with “CAGTAAGGTTATTATTATTTGTTTTATTTTGTTT (double strand) [FoxA BS chr10:75378448]”, 0.83; with “CAGTGTGAGTGTGTGTGTGTATACAGCGTGAGTC (double strand) [FoxA BS chr15:59478046]”, 0.26.
With “CAGTGTTGCCCGTCGTATTTGTATATGGTTTCCT (double strand) [FoxA BS chr10:79387812]”, the binding signal (EMSA score (TTR=1)) was found to be 0.58.
Same read-out and setting: with “CAGTCCCTTCCCTTATTTACATTCCCGAGA (double strand) [FoxA BS chr7:140707466 a]” the figure was 1.13; with “CAGTCGTGACCTTTGTTGACTCGCGTCAGT (double strand) [FoxA BS chrX:17319260]”, 0.53.
Same read-out and setting: the value for “CAGTCGTCTTCCCTGTGTGCTTACTATGCA (double strand) [non-site chr12:85340663 b]” was 0.07; that for “CAGTTATCAATGTTTGTTTACCTTGTGGCT (double strand) [FoxA BS chrX:6878436]” was 1.65.
“CAGTATTGGACATTGTTTATTTGTTTTGCC (double strand) [FoxA BS chr1:141375708]” returned a binding signal (EMSA score (TTR=1)) of 1.21.
Still for that read-out and setting: with “CAGTAGGGTCAAGGTAGTTTGCATATCTTCCAAC (double strand) [non-site chr7:83767529]” the figure was 0.24.
“CGATCAAAACTAGGTCAAAGGTCA (double strand) [PPAR]” registered a binding signal (EMSA score (TTR=1)) (negative control) of 0.
In the case of “CAGTGCAACAAGTTGTTTACACTCTTCATT (double strand) [FoxA BS chr6:34792983 a]”, the binding signal (EMSA score (TTR=1)) is 0.82.
As to “CAGTACTAGATGTTTACTTTAAGGGACCAG (double strand) [FoxA BS chr9:107745824]”, the binding signal (EMSA score (TTR=1)) is 1.3.
On the same count and under the same terms, the value for “CAGTCTGCCCTGCTGTTTACCAGCTGGAGA (double strand) [FoxA BS chr3:94456673 a]” was 0.29; that for “CAGTAGCCCCTCCTGTGTTGTCTTCCAGTAGATG (double strand) [non-site chr7:59095749]” was 0.09.
